Legend:
[1] = target: HA protein of B/Florida/4/2006 (vaccine antigen) (influenza B virus B/Florida/4/2006)
[2] = target: HA protein of B/Johannesburg/5/1999 (influenza B virus B/Johannesburg/5/1999); test: cell-based or functional assay
[3] = target: HA protein of B/Shandong/7/1997 (influenza B virus B/Shandong/7/1997); test: cell-based or functional assay
[4] = target: HA protein of B/Florida/4/2006 (influenza B virus B/Florida/4/2006); test: cell-based or functional assay
[5] = target: HA protein of B/Victoria/2/1987 (influenza B virus B/Victoria/2/1987); test: cell-based or functional assay
[6] = target: HA protein of B/Malaysia/2506/2004 (influenza B virus B/Malaysia/2506/2004); test: cell-based or functional assay
[7] = target: HA protein of B/Shanghai/361/2002 (influenza B virus B/Shanghai/361/2002); test: cell-based or functional assay
[8] = target: HA protein of B/Yamanashi/166/1998 (influenza B virus B/Yamanashi/166/1998); test: cell-based or functional assay
[9] = target: HA protein of B/Mie/1/1993 (influenza B virus B/Mie/1/1993); test: cell-based or functional assay

B1: HuMAb 5A7 (human monoclonal antibody from hybridoma) (antibody, V domains shown)
VH: QVQLVESGGDVVQPGRSLRLSCAASGFTFNNYGMHWVRQAPGKGLEWVAVVWYDGLIKYYADSVKGRFTISRDNSKNTLYLQMNTLRAEDMGVYYCARDLQPPHSPYGMDVWGQGTTVTVSS
VL: QSVLTQPPSASGTPGQRVTISCSGSSSNIGSNDVYWYQNLPGTAPKLLIYNNNQRPSGVPDRFSGSKSGTSASLAISGLRSEDEADYYCAAWDDSLTVSFGTGTKVTVL
Kd [1]: < 5.6 nM | VN50 [2]: 6.25 µg/mL | VN50 [3]: 25 µg/mL | Fusion inhibition [4]: 100 µg/mL | HI [4]: 25 µg/mL | VN50 [4]: 6.25 µg/mL | VN50 [5]: 25 µg/mL | VN50 [6]: 6.25 µg/mL | VN50 [7]: 6.25 µg/mL | VN50 [8]: 6.25 µg/mL | VN50 [9]: 6.25 µg/mL
